Measurements from patent US20210139559A1 (XL PROTEIN, published 2021).

What was measured:
human VEGF165 ligand [1] = target: T1, human VEGF165 ligand (human, UniProt P15692-4 27-191); experiment: serial dilution mixed with 50 pM human VEGF165 in solution, unbound VEGF165 measured by ELISA
T1 construct: also called VEGF-A165
Protocol: The amount of unbound VEGF₁₆₅ was then measured by a human VEGF-specific ELISA (Human VEGF DuoSet ELISA kit, R&D Systems, CAT. No. DY293B-05).
(§1) Unbound human VEGF₁₆₅ or PDGF-BB was calculated using 4 parameters curve with the absorbance value. And the IC₅₀ of the tested fusion proteins and the reference was calculated using 4 parameters curve with unbound human VEGF₁₆₅ or PDGF-BB.

human VEGF165 ligand [2] = target: T1, human VEGF165 ligand; experiment: cell-based or functional assay
human PDGF-BB ligand = human PDGF-BB ligand (human, UniProt P01127 82-190); experiment: serial dilution mixed with 1 ng/ml human PDGF-BB in solution, unbound PDGF-BB measured by ELISA
Protocol: The amount of unbound PDGF-BB was then measured by a human PDGF-BB-specific ELISA (Human PDGF-BB DuoSet ELISA kit, R&D Systems, CAT. No. DY220).
as §1

T1 sequence (P15692 other isoform, or with tags, fused parts or gaps limits assumed): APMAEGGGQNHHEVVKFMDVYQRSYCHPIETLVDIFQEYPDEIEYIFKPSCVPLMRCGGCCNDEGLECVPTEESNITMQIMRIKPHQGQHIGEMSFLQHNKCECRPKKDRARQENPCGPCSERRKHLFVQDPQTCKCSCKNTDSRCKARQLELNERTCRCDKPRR
Sequence of human PDGF-BB ligand (P01127 82-190): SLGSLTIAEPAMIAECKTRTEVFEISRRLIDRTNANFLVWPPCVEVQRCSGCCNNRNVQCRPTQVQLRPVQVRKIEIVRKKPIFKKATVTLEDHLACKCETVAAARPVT

| Binder | IC50 (human VEGF165 ligand [1]) | Inhibition of HUVEC cells proliferation, IC50 (human VEGF165 ligand [2]) | IC50 (human PDGF-BB ligand) |
| --- | --- | --- | --- |
| PDGFRαD123-PAS(300)-VEGFR1D2/R2D3 (receptor, Expressed in CHO-3E7 cells, purified over a Ni column; also called EPS1103P) QLSLPSILPNENEKVVQLNSSFSLRCFGESEVSWQYPMSEEESSDVEIRNEENNSGLFVTVLEVSSASAAHTGLYTCYYNHTQTEENELEGRHIYIYVPDPDVAFVPLGMTDYLVIVEDDDSAIIPCRTTDPETPVTLHNSEGVVPASYDSRQGFNGTFTVGPYICEATVKGKKFQTIPFNVYALKATSELDLEMEALKTVYKSGETIVVTCAVFNNEVVDLQWTYPGEVKGKGITMLEEIKVPSIKLVYTLTVPEATVKDSGDYECAARQATREVKEMKKVTISVHEKGASPAAPAPASPAAPAPSAPAASPAAPAPASPAAPAPSAPAASPAAPAPASPAAPAPSAPAASPAAPAPASPAAPAPSAPAASPAAPAPASPAAPAPSAPAASPAAPAPASPAAPAPSAPAASPAAPAPASPAAPAPSAPAASPAAPAPASPAAPAPSAPAASPAAPAPASPAAPAPSAPAASPAAPAPASPAAPAPSAPAASPAAPAPASPAAPAPSAPAASPAAPAPASPAAPAPSAPAASPAAPAPASPAAPAPSAPAASPAAPAPASPAAPAPSAPAASPAAPAPASPAAPAPSAPASDTGRPFVEMYSEIPEIIHMTEGRELVIPCRVTSPNITVTLKKFPLDTLIPDGKRIIWDSRKGFIISNATYKEIGLLTCEATVNGHLYKTNYLTHRQTNTIIDVVLSPSHGIELSVGEKLVLNCTARTELNVGIDFNWEYPSSKHQHKKLVNRDLKTQSGSEMKKFLSTLTIDGVTRSDQGLYTCAASSGLMTKKNSTFVRVHEKHHHHHH | 0.869 nM | – | – |
| VEGFR1D2/R2D3-PAS(200)-PDGFRαD123 (receptor, also called EPS1105P) SDTGRPFVEMYSEIPEIIHMTEGRELVIPCRVTSPNITVTLKKFPLDTLIPDGKRIIWDSRKGFIISNATYKEIGLLTCEATVNGHLYKTNYLTHRQTNTIIDVVLSPSHGIELSVGEKLVLNCTARTELNVGIDFNWEYPSSKHQHKKLVNRDLKTQSGSEMKKFLSTLTIDGVTRSDQGLYTCAASSGLMTKKNSTFVRVHEKASPAAPAPASPAAPAPSAPAASPAAPAPASPAAPAPSAPAASPAAPAPASPAAPAPSAPAASPAAPAPASPAAPAPSAPAASPAAPAPASPAAPAPSAPAASPAAPAPASPAAPAPSAPAASPAAPAPASPAAPAPSAPAASPAAPAPASPAAPAPSAPAASPAAPAPASPAAPAPSAPAASPAAPAPASPAAPAPSAPAQLSLPSILPNENEKVVQLNSSFSLRCFGESEVSWQYPMSEEESSDVEIRNEENNSGLFVTVLEVSSASAAHTGLYTCYYNHTQTEENELEGRHIYIYVPDPDVAFVPLGMTDYLVIVEDDDSAIIPCRTTDPETPVTLHNSEGVVPASYDSRQGFNGTFTVGPYICEATVKGKKFQTIPFNVYALKATSELDLEMEALKTVYKSGETIVVTCAVFNNEVVDLQWTYPGEVKGKGITMLEEIKVPSIKLVYTLTVPEATVKDSGDYECAARQATREVKEMKKVTISVHEKGHHHHHH | 0.546 nM | 28.4 nM | – |
| PDGFRαD123-PAS(200)-VEGFR1D2/R2D3 fusion protein (receptor, glycosylated (as purified from MEXi-293E medium), also called EPS1108P) QLSLPSILPNENEKVVQLNSSFSLRCFGESEVSWQYPMSEEESSDVEIRNEENNSGLFVTVLEVSSASAAHTGLYTCYYNHTQTEENELEGRHIYIYVPDPDVAFVPLGMTDYLVIVEDDDSAIIPCRTTDPETPVTLHNSEGVVPASYDSRQGFNGTFTVGPYICEATVKGKKFQTIPFNVYALKATSELDLEMEALKTVYKSGETIVVTCAVFNNEVVDLQWTYPGEVKGKGITMLEEIKVPSIKLVYTLTVPEATVKDSGDYECAARQATREVKEMKKVTISVHEKGASPAAPAPASPAAPAPSAPAASPAAPAPASPAAPAPSAPAASPAAPAPASPAAPAPSAPAASPAAPAPASPAAPAPSAPAASPAAPAPASPAAPAPSAPAASPAAPAPASPAAPAPSAPAASPAAPAPASPAAPAPSAPAASPAAPAPASPAAPAPSAPAASPAAPAPASPAAPAPSAPAASPAAPAPASPAAPAPSAPAASDTGRPFVEMYSEIPEIIHMTEGRELVIPCRVTSPNITVTLKKFPLDTLIPDGKRIIWDSRKGFIISNATYKEIGLLTCEATVNGHLYKTNYLTHRQTNTIIDVVLSPSHGIELSVGEKLVLNCTARTELNVGIDFNWEYPSSKHQHKKLVNRDLKTQSGSEMKKFLSTLTIDGVTRSDQGLYTCAASSGLMTKKNSTFVRVHEKHHHHHHA | 0.32 nM | 28.5 nM | 66.3 nM |
| VEGFR1D2/R2D3-(GGGGS)3-PAS(200)-(GGGGS)3-PDGFRαD123 (receptor, also called EPS1107P) SDTGRPFVEMYSEIPEIIHMTEGRELVIPCRVTSPNITVTLKKFPLDTLIPDGKRIIWDSRKGFIISNATYKEIGLLTCEATVNGHLYKTNYLTHRQTNTIIDVVLSPSHGIELSVGEKLVLNCTARTELNVGIDFNWEYPSSKHQHKKLVNRDLKTQSGSEMKKFLSTLTIDGVTRSDQGLYTCAASSGLMTKKNSTFVRVHEKGGGGSGGGGSGGGGSASPAAPAPASPAAPAPSAPAASPAAPAPASPAAPAPSAPAASPAAPAPASPAAPAPSAPAASPAAPAPASPAAPAPSAPAASPAAPAPASPAAPAPSAPAASPAAPAPASPAAPAPSAPAASPAAPAPASPAAPAPSAPAASPAAPAPASPAAPAPSAPAASPAAPAPASPAAPAPSAPAASPAAPAPASPAAPAPSAPAGGGGSGGGGSGGGGSQLSLPSILPNENEKVVQLNSSFSLRCFGESEVSWQYPMSEEESSDVEIRNEENNSGLFVTVLEVSSASAAHTGLYTCYYNHTQTEENELEGRHIYIYVPDPDVAFVPLGMTDYLVIVEDDDSAIIPCRTTDPETPVTLHNSEGVVPASYDSRQGFNGTFTVGPYICEATVKGKKFQTIPFNVYALKATSELDLEMEALKTVYKSGETIVVTCAVFNNEVVDLQWTYPGEVKGKGITMLEEIKVPSIKLVYTLTVPEATVKDSGDYECAARQATREVKEMKKVTISVHEKGHHHHHH | 0.304 nM | 53.1 nM | – |
| PAS(200)-VEGFR1D2/R2D3-PDGFRαD123 (receptor, the tag stands at the N-terminus; also called EPS1109P) HHHHHHASPAAPAPASPAAPAPSAPAASPAAPAPASPAAPAPSAPAASPAAPAPASPAAPAPSAPAASPAAPAPASPAAPAPSAPAASPAAPAPASPAAPAPSAPAASPAAPAPASPAAPAPSAPAASPAAPAPASPAAPAPSAPAASPAAPAPASPAAPAPSAPAASPAAPAPASPAAPAPSAPAASPAAPAPASPAAPAPSAPASDTGRPFVEMYSEIPEIIHMTEGRELVIPCRVTSPNITVTLKKFPLDTLIPDGKRIIWDSRKGFIISNATYKEIGLLTCEATVNGHLYKTNYLTHRQTNTIIDVVLSPSHGIELSVGEKLVLNCTARTELNVGIDFNWEYPSSKHQHKKLVNRDLKTQSGSEMKKFLSTLTIDGVTRSDQGLYTCAASSGLMTKKNSTFVRVHEKQLSLPSILPNENEKVVQLNSSFSLRCFGESEVSWQYPMSEEESSDVEIRNEENNSGLFVTVLEVSSASAAHTGLYTCYYNHTQTEENELEGRHIYIYVPDPDVAFVPLGMTDYLVIVEDDDSAIIPCRTTDPETPVTLHNSEGVVPASYDSRQGFNGTFTVGPYICEATVKGKKFQTIPFNVYALKATSELDLEMEALKTVYKSGETIVVTCAVFNNEVVDLQWTYPGEVKGKGITMLEEIKVPSIKLVYTLTVPEATVKDSGDYECAARQATREVKEMKKVTISVHEKG | 0.218 nM | – | – |
| PDGFRαD123-(GGGGS)3-PAS(200)-(GGGGS)3-VEGFR1D2/R2D3 (receptor, also called EPS1106P) QLSLPSILPNENEKVVQLNSSFSLRCFGESEVSWQYPMSEEESSDVEIRNEENNSGLFVTVLEVSSASAAHTGLYTCYYNHTQTEENELEGRHIYIYVPDPDVAFVPLGMTDYLVIVEDDDSAIIPCRTTDPETPVTLHNSEGVVPASYDSRQGFNGTFTVGPYICEATVKGKKFQTIPFNVYALKATSELDLEMEALKTVYKSGETIVVTCAVFNNEVVDLQWTYPGEVKGKGITMLEEIKVPSIKLVYTLTVPEATVKDSGDYECAARQATREVKEMKKVTISVHEKGGGGGSGGGGSGGGGSASPAAPAPASPAAPAPSAPAASPAAPAPASPAAPAPSAPAASPAAPAPASPAAPAPSAPAASPAAPAPASPAAPAPSAPAASPAAPAPASPAAPAPSAPAASPAAPAPASPAAPAPSAPAASPAAPAPASPAAPAPSAPAASPAAPAPASPAAPAPSAPAASPAAPAPASPAAPAPSAPAASPAAPAPASPAAPAPSAPAGGGGSGGGGSGGGGSSDTGRPFVEMYSEIPEIIHMTEGRELVIPCRVTSPNITVTLKKFPLDTLIPDGKRIIWDSRKGFIISNATYKEIGLLTCEATVNGHLYKTNYLTHRQTNTIIDVVLSPSHGIELSVGEKLVLNCTARTELNVGIDFNWEYPSSKHQHKKLVNRDLKTQSGSEMKKFLSTLTIDGVTRSDQGLYTCAASSGLMTKKNSTFVRVHEKHHHHHH | 0.555 nM | 39.7 nM | – |
